Data taken from patent publication US20200206342A1.

What was measured:
[1] = target: purified soluble 8his-tagged BG505-QES.i03.c01 SOSIP (HIV-1 strain BG505); assay: ELISA, purified 8his SOSIP on nickel-coated plate
[2] = target: purified soluble 8his-tagged BG505 SOSIP.664 (T332N), wildtype (HIV-1 strain BG505); assay: ELISA, his-tagged SOSIP on nickel-coated plate, peroxidase anti-human IgG-Fc, OD 630 nm
[3] = target: 25711 Env I181L + V254T (QES.c02) (HIV-1 strain 25711); assay: flow cytometry titration on cells
[4] = target: BaL Env QES.i01 + I181L + V255M (QES.i01.c01) (HIV-1 strain BaL); assay: flow cytometry titration on cells
[5] = target: DU422 Env V181L + V254T + V255M (QES.c03) (HIV-1 strain DU422); assay: flow cytometry titration on cells
[6] = target: Q769.d22 Env QES.i03 + V255M (QES.i03.V255M) (HIV-1 strain Q769.d22); assay: flow cytometry titration on cells
[7] = target: Q842.d12 Env QES.i04 + I181L (QES.i04.I181L) (HIV-1 strain Q842.d12); assay: flow cytometry titration on cells
[8] = target: BaL Env T49D + P124D + I595M (BaL-QES.i01) (HIV-1 strain BaL); assay: flow cytometry titration on Expi293F cells
[9] = target: BaL Env T49D + P124D + L663N (BaL-QES.i02) (HIV-1 strain BaL); assay: flow cytometry titration on Expi293F cells
[10] = target: Q769.d22 Env A200E + F223Y + I595M (Q769-QES.i03) (HIV-1 strain Q769.d22); assay: flow cytometry titration on Expi293F cells
[11] = target: Q842.d12 Env P124D + F223Y + R557Q + I595M (Q842-QES.i04) (HIV-1 strain Q842.d12); assay: flow cytometry titration on Expi293F cells
[12] = target: BaL Env T49D + P124D + I595M (BaL-QES.i01) (HIV-1 strain BaL); assay: apparent KD, flow cytometry titration on Expi293F cells
[13] = target: BaL Env T49D + P124D + L663N (BaL-QES.i02) (HIV-1 strain BaL); assay: as above
[14] = target: BaL Env gp160 wildtype (HIV-1 strain BaL); assay: as above
[15] = target: Q769.d22 Env A200E + F223Y + I595M (Q769-QES.i03) (HIV-1 strain Q769.d22); assay: as above
[16] = target: Q769.d22 Env gp160 wildtype (HIV-1 strain Q769.d22); assay: as above
[17] = target: Q842.d12 Env P124D + F223Y + R557Q + I595M (Q842-QES.i04) (HIV-1 strain Q842.d12); assay: as above
[18] = target: Q842.d12 Env gp160 wildtype (HIV-1 strain Q842.d12); assay: as above
[19] = target: DU422 gp140 (surface-displayed ectodomain) (HIV-1 strain DU422); assay: apparent dissociation constant, flow cytometry on Expi293F cells
[20] = target: purified soluble 8his-tagged BG505 SOSIP.664 (T332N), wildtype (HIV-1 strain BG505); assay: ELISA, his-tagged SOSIP on copper-coated plate, peroxidase anti-human IgG-Fc, OD 630 nm
[21] = target: purified soluble 8his-tagged BG505-QES.i03.c01 SOSIP (HIV-1 strain BG505); assay: as above
[22] = target: BaL Env gp160 wildtype (HIV-1 strain BaL); assay: flow cytometry, 2 nM PG16, transfected Expi293F cells, percent of cells in the positive gate (Negative: 0.5 %, 0.5 %)
[23] = target: C331I; assay: as above
[24] = target: D133W; assay: as above
[25] = target: E634A; assay: as above
[26] = target: F159V; assay: as above
[27] = target: F223L; assay: as above
[28] = target: F93G; assay: as above
[29] = target: I201M; assay: as above
[30] = target: I251S; assay: as above
[31] = target: I491S; assay: as above
[32] = target: I686R; assay: as above
[33] = target: K617Q; assay: as above
[34] = target: Q540V; assay: as above
[35] = target: S199C; assay: as above
[36] = target: T248E; assay: as above
[37] = target: T319K; assay: as above
[38] = target: V208G; assay: as above
[39] = target: V36R; assay: as above
[40] = target: W338A; assay: as above
[41] = target: W614A; assay: as above
[42] = target: Y191I; assay: as above
[43] = target: Q842.d12 Env gp160 wildtype (HIV-1 strain Q842.d12); assay: flow cytometry titration, transfected cells expressing the Env
[44] = target: Q842.d12 Env P124D + F223Y + R557Q + I595M (Q842-QES.i04) (HIV-1 strain Q842.d12); assay: flow cytometry, Expi293F cells

Substance: CD4-IgG2 (Fc fusion)
- fold reduction of apparent affinity against wildtype [1]: 5.5 fold
- EC50 (read off the curve) [2]: 0.08 µg/mL

Substance: PG16 (antibody)
- fold more PG16 bound at saturation against wildtype [3]: < 5 fold
- fold more PG16 bound at saturation against wildtype [4]: < 5 fold
- fold more PG16 bound at saturation against wildtype [5]: < 5 fold
- fold more PG16 bound at saturation against wildtype [6]: < 5 fold
- fold more PG16 bound at saturation against wildtype [7]: < 5 fold
- fold increase in PG16 binding at saturation against wildtype [8]: 1.6 fold
- fold increase in PG16 binding at saturation against wildtype [9]: 1.6 fold
- fold higher binding at saturation against wildtype [10]: 2.7 fold
- fold increase in PG16 binding signal at saturation against wildtype [11]: 2.4 fold
- Kd [12]: 1.2 nM
- Kd [13]: 1.4 nM
- Kd [14]: 4 nM
- Kd [15]: 3.7 nM
- Kd [16]: 5 nM
- Kd [17]: 5 nM
- Kd [18]: 3.4 nM
- Kd [19]: 5 nM
- EC50 (read off the curve) [20]: 0.4 nM
- EC50 (read off the curve) [21]: 0.2 nM
- percent positive cells (first of two replicates) [22]: 38%
- percent positive cells (second of two replicates) [22]: 36.2%
- percent positive cells (first of two replicates) [23]: 1.4%
- percent positive cells (second of two replicates) [23]: 1.9%
- percent positive cells (first of two replicates) [24]: 16%
- percent positive cells (second of two replicates) [24]: 16%
- percent positive cells (first of two replicates) [25]: 11.1%
- percent positive cells (second of two replicates) [25]: 9.3%
- percent positive cells (first of two replicates) [26]: 1.4%
- percent positive cells (second of two replicates) [26]: 1.7%
- percent positive cells (first of two replicates) [27]: 11.2%
- percent positive cells (second of two replicates) [27]: 10.7%
- percent positive cells (first of two replicates) [28]: 1.4%
- percent positive cells (second of two replicates) [28]: 2.1%
- percent positive cells (first of two replicates) [29]: 29.5%
- percent positive cells (second of two replicates) [29]: 29.8%
- percent positive cells (first of two replicates) [30]: 6.1%
- percent positive cells (second of two replicates) [30]: 4.2%
- percent positive cells (first of two replicates) [31]: 1.3%
- percent positive cells (second of two replicates) [31]: 2.1%
- percent positive cells (first of two replicates) [32]: 5%
- percent positive cells (second of two replicates) [32]: 5.9%
- percent positive cells (first of two replicates) [33]: 15%
- percent positive cells (second of two replicates) [33]: 14.8%
- percent positive cells (first of two replicates) [34]: 2.4%
- percent positive cells (second of two replicates) [34]: 3%
- percent positive cells (first of two replicates) [35]: 1.2%
- percent positive cells (second of two replicates) [35]: 1.6%
- percent positive cells (first of two replicates) [36]: 1.1%
- percent positive cells (second of two replicates) [36]: 2%
- percent positive cells (first of two replicates) [37]: 20.3%
- percent positive cells (second of two replicates) [37]: 18.8%
- percent positive cells (first of two replicates) [38]: 21.6%
- percent positive cells (second of two replicates) [38]: 22.5%
- percent positive cells (first of two replicates) [39]: 2.1%
- percent positive cells (second of two replicates) [39]: 2.6%
- percent positive cells (first of two replicates) [40]: 1.3%
- percent positive cells (second of two replicates) [40]: 2%
- percent positive cells (first of two replicates) [41]: 1.2%
- percent positive cells (second of two replicates) [41]: 2.1%
- percent positive cells (first of two replicates) [42]: 1.9%
- percent positive cells (second of two replicates) [42]: 1.9%

Substance: PGT145 (antibody)
- EC50 (read off the curve) [43]: 0.5 nM

Substance: VRC01 (antibody)
- EC50 (read off the curve) [20]: 1 nM
- EC50 (read off the curve) [21]: 1 nM

Substance: soluble CD4 sCD4-183 (domains D1-D2) (from UniProt P01730 26-208) (receptor)
- fold increase in soluble CD4 binding against wildtype [44]: 3 fold
- Kd [19]: 18 nM
